Test results taken from the supplement of paper PMC10567573.

B1: GMCL1 (parent)
chain: FCYCAGSHKRKRSSGSFCYCHPDS
B2: FAM9B (parent)
chain: EDLTAKRKRMKMDKTCSKTKNKSK

Variants of: B1
Assay: protein stability index of a GFP-peptide fusion (GPS, HEK-293T) (PSI 1-6); higher = more stable
Details: c terminus: a fixed tail appended
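Note: lentivirally expressed fusions sorted by FACS into six bins by GFP to DsRed ratio, PSI derived from sequencing read proportions per bin multiplied by bin number.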

In order of falling protein stability index:
1. F1E  4.31
2. F1P  4.21
3. F1D  4.2
4. F1A  4.19
5. F1C  4.1
6. F1R  3.85
7. F1Q  3.82
8. F1N  3.81
9. F1I  3.79
10. F1K  3.78
11. F1S  3.78
12. F1V  3.65
13. C2R  3.48
14. F1M  3.46
15. F1T  3.34
16. C2Q  3.31
17. F1H  3.17
18. A5I  3.03
19. Y3T  2.99
20. S7T  2.98
21. Y3L  2.96
22. G6N  2.92
23. Y3Q  2.89
24. H8G  2.88
25. Y3W  2.88
26. G6W  2.84
27. Y3K  2.82
28. C4L  2.81
29. K9Y  2.8
30. F1L  2.8
31. C2D  2.79
32. K9S  2.76
33. C2A  2.76
34. C2G  2.7
35. G6V  2.68
36. A5V  2.67
37. Y3N  2.67
38. K9W  2.62
39. H8W  2.59
40. G6Y  2.59
41. A5P  2.58
42. H8Y  2.57
43. K9V  2.57
44. C4W  2.56
45. C4S  2.55
46. S7F  2.54
47. A5K  2.53
48. G6C  2.53
49. C4M  2.52
50. Y3E  2.5
51. G6M  2.48
52. R10A  2.48
53. Y3I  2.46
54. G6L  2.44
55. G6S  2.39
56. A5D  2.38
57. A5F  2.37
58. H8C  2.37
59. Y3A  2.37
60. S7R  2.34
61. A5E  2.33
62. H8S  2.33
63. Y3R  2.3
64. S7K  2.29
65. C4V  2.27
66. A5W  2.26
67. A5H  2.26
68. C4N  2.26
69. C2F  2.25
70. C2S  2.25
71. Y3S  2.25
72. C2T  2.22
73. S7E  2.2
74. Y3D  2.2
75. H8N  2.19
76. S7N  2.16
77. S7A  2.15
78. K9E  2.14
79. K9F  2.13
80. H8E  2.1
81. S7C  2.1
82. C4K  2.07
83. Y3V  2.07
84. C4T  2.06
85. C2K  2.06
86. G6R  2.05
87. K9N  2.05
88. C2E  2.05
89. A5N  2.03
90. C2Y  2.03
91. Y3M  2.02
92. R10D  2.02
93. K9Q  2.01
94. C4E  2.01
95. Y3F  2.01
96. A5S  2
97. G6Q  2
98. K9C  2
99. H8K  1.99
100. K9D  1.99
101. K9L  1.99
102. S7M  1.98
103. H8F  1.97
104. A5Q  1.94
105. H8P  1.94
106. G6H  1.94
107. K9I  1.94
108. C2I  1.94
109. S7V  1.93
110. G6F  1.92
111. G6D  1.91
112. F1W  1.91
113. H8R  1.9
114. S7W  1.9
115. A5Y  1.89
116. H8V  1.89
117. S7L  1.89
118. A5M  1.88
119. G6E  1.86
120. K9H  1.86
121. A5R  1.85
122. C2H  1.81
123. Y3H  1.81
124. C2W  1.79
125. C2L  1.79
126. S7Q  1.77
127. K9M  1.77
128. Y3P  1.76
129. S7I  1.75
130. Y3C  1.75
131. C4D  1.74
132. S7P  1.7
133. C4G  1.7
134. Y3G  1.7
135. H8D  1.67
136. H8T  1.67
137. H8M  1.66
138. A5C  1.65
139. C4F  1.65
140. K9A  1.63
141. K9R  1.61
142. S7Y  1.59
143. S7H  1.59
144. A5L  1.57
145. K9G  1.57
146. C4I  1.56
147. G6T  1.55
148. S7D  1.55
149. F1Y  1.55
150. G6I  1.54
151. C4P  1.53
152. C2P  1.53
153. K9P  1.52
154. C2M  1.51
155. A5G  1.5
156. G6K  1.5
157. H8I  1.48
158. H8Q  1.43
159. A5T  1.38
160. C4R  1.36
161. C4H  1.35
162. G6P  1.34
163. K9T  1.29
164. C4A  1.29
165. C2N  1.27
166. H8L  1.1
167. S7G  1.02
168. C4Q  1.01

Variants of: B2
Assay: as above
Details: c terminus: a fixed tail appended

In order of rising protein stability index:
1. K22I  3.59
2. K18F  3.92
3. S23M  3.93
4. K24W  3.98
5. K24L  4.01
6. C16G  4.11
7. N21V  4.11
8. K24G  4.19
9. K22W  4.19
10. S17F  4.24
11. K20V  4.32
12. K18W  4.35
13. K22V  4.39
14. K22L  4.39
15. N21W  4.4
16. K24S  4.43
17. K20Y  4.43
18. K20F  4.46
19. K20W  4.47
20. K22M  4.47
21. S23W  4.47
22. S23H  4.53
23. S17K  4.55
24. K20M  4.57
25. K20C  4.57
26. N21F  4.57
27. T19W  4.58
28. K24Q  4.59
29. K18Y  4.59
30. S23F  4.6
31. K24V  4.62
32. K22F  4.63
33. C16H  4.66
34. K18M  4.67
35. K24I  4.68
36. C16A  4.69
37. S17A  4.7
38. T19V  4.7
39. N21I  4.7
40. K24H  4.71
41. C16I  4.71
42. K22Q  4.74
43. K20P  4.75
44. K20I  4.75
45. K18L  4.75
46. K18V  4.75
47. T19Y  4.75
48. K20R  4.76
49. S23L  4.76
50. N21Y  4.77
51. K18S  4.78
52. K22G  4.78
53. S23I  4.78
54. N21G  4.78
55. S17H  4.8
56. K18R  4.81
57. N21M  4.81
58. K24F  4.83
59. K18G  4.83
60. K22N  4.83
61. K20S  4.84
62. K18A  4.86
63. K20N  4.87
64. S17V  4.88
65. K18T  4.89
66. T19P  4.89
67. K20D  4.9
68. K18I  4.9
69. T19I  4.9
70. K22C  4.92
71. S17P  4.93
72. K24P  4.93
73. C16F  4.93
74. N21L  4.93
75. K20A  4.94
76. T19L  4.94
77. T19G  4.94
78. N21P  4.94
79. N21C  4.95
80. K24M  4.96
81. K20L  4.96
82. K18C  4.96
83. C16K  4.96
84. K22E  4.96
85. K24D  4.97
86. T19D  4.97
87. T19C  4.99
88. K24N  5
89. K22H  5
90. N21H  5
91. S17G  5.02
92. S17W  5.02
93. T19H  5.02
94. S17C  5.05
95. C16L  5.05
96. K24R  5.06
97. K20G  5.06
98. S23K  5.06
99. K20E  5.07
100. K18D  5.07
101. K22Y  5.07
102. S23G  5.07
103. S23Y  5.07
104. S17Y  5.08
105. C16W  5.08
106. T19Q  5.08
107. S23Q  5.1
108. T19N  5.1
109. K24E  5.11
110. K22T  5.11
111. S23N  5.12
112. K24A  5.14
113. K24T  5.15
114. K20Q  5.15
115. T19M  5.15
116. T19A  5.16
117. T19K  5.17
118. N21D  5.17
119. K18N  5.18
120. K24C  5.2
121. S17I  5.21
122. N21A  5.23
123. K20H  5.24
124. K22D  5.24
125. S23R  5.24
126. K20T  5.25
127. N21R  5.25
128. T19R  5.26
129. C16M  5.27
130. S23V  5.27
131. T19F  5.29
132. K18H  5.3
133. K22R  5.31
134. S23T  5.31
135. S17T  5.32
136. S23C  5.32
137. C16S  5.33
138. N21K  5.33
139. S17Q  5.34
140. S23D  5.36
141. S17M  5.39
142. K22A  5.4
143. N21T  5.42
144. N21E  5.44
145. C16Q  5.45
146. C16N  5.46
147. N21S  5.46
148. C16R  5.47
149. C16E  5.47
150. N21Q  5.51
151. S23E  5.52
152. C16V  5.53
153. C16Y  5.54
154. S23P  5.54
155. K18Q  5.57
156. C16P  5.57
157. K22P  5.58
158. K18E  5.6
159. T19S  5.62
160. C16T  5.63
161. C16D  5.67
162. S23A  5.7
163. S17E  5.73
164. T19E  5.74
165. S17N  5.85
166. K18P  5.87
